Measured values as given in the nanobody polyreactivity screen of Harvey et al. (2022).

experiment: yeast display, Sf9 membrane polyspecificity reagent, FACS + sequencing; frameworks hold sequencing errors
Method in brief: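 Synthetic nanobody libraries on Saccharomyces cerevisiae BJ5465 were galactose-induced for 36–48 hours, stained 1 hour at 4 °C with 10% biotinylated, detergent-solubilized Sf9 membrane reagent and enriched on streptavidin microbeads. FACS then separated cells into low and high (top ~1%) gates by anti-HA (expression) and streptavidin (reagent binding) fluorescence. Genes were colony-PCR amplified, MiSeq 2 × 250 sequenced and CDR-length filtered. A clone's polyreactivity label is that of its gate of origin.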

| Sequence | polyreactivity (PSR sort gate) |
| --- | --- |
| QVQLVESGGGLVQAGGSLRLSCAASGGIILPYAMGWYRQAPGKERELVAAISGRTGSTNYADSVKGRFTISRDNAKNTVYLQMNSLKPEDTAVYYCAARGVRSYFFPYNYWGQGTQVTVSS | high polyreactivity |
| QVQLVESGGGLVQAGGSLRLSCAASGGIIQGYSMVWYRQAPGKERELVAAISSSGGTTYYADSVKGRFTISRDNAKNTVYLQMNSLKPEDTAVYYCAAPTHSPYDYWGQGTQVTVSS | low polyreactivity |
| QVQLVESGGGLVQAGGSLRLSCAASGGIIRVYVMGWSRQAPGKERELVAAISRRGGSTYYADSVKGRFTISRDNAKNTVYLQMNSLKPEDTAVYYCAAAVRPRANTTYQRPRYYYWGQGTQVTVSS | high polyreactivity |
| QVQLVESGGGLVQAGGSLRLSCAASGGILRQNTMGWYRQAPGKERELVAAISSSGGRTYYADSVKGRFTISRDNAKNTVYLQMNSLKPEDTAVYYCNVPAKRYPYYIRQSTVYPGNYWGQGTQVTVSS | high polyreactivity |
| QVQLVESGGGLVQAGGSLRLSCAASGGILVFYALGWYRQSPGKERELVAAINVSGGSTYYADSVKGRFTISRDNAKNTVYLQMNSLKPEDTAVYYCAALGPYLDYGVQYGYWGQGTQVTVSS | low polyreactivity |
| QVQLVESGGGLVQAGGSLRLSCAASGGILVGYAMGWYRQAPGKERELVAAINYSGGSTNYADSVKGRFTISRDNAKNTVYLQMNSLKPVDTAVYYCAARSTARYGYWGQGTQVTVSS | low polyreactivity |
| QVQLVESGGGLVQAGGSLRLSCAASGGILWGNGMGWYRQAPGKERELVAAISTGGSTNYADSVKGRFTISRDNAKNTVYLQMNSLKPEETAVYYCAGGAGGVRYSFYWNDYWGQGTQVTVSS | high polyreactivity |
| QVQLVESGGGLVQAGGSLRLSCAASGGISTAYTMGWYRQAPGKERELVADITRSGGRTYYADSVKGRFTISRDNAKNTVYLQMNSLKPEDTAVYYCARTYYYRFNYWGQGTQVTVSS | high polyreactivity |
| QVQLVESGGGLVQAGGSLRLSCAASGGLFYYNAMGWYRQAPGKERELVAAISGSGGTTYYADSVKGRFTISRDNAKNTVYLQMNSLKPEDTAVYYCAKRPYTVIAYSRYGYWGQGTQVTVSS | high polyreactivity |
| QVQLVESGGGLVQAGGSLRLSCAASGGMGWYRQAPGKERELVATISSVGSTNYADSVKGRFTISRDNAKNTVYLQMNSLKPEDTAVYYCNDTGVQYFLYAYWGQGTQVTVSS | low polyreactivity |
| QVQLVESGGGLVQAGGSLRLSCAASGGMGWYRQAPGKERELVATISSVGSTNYADSVKGRFTISRDNAKNTVYLQRNSLKPEVTAVYYCNATGVQYFLYGYWGQGTQVTVSS | low polyreactivity |
| QVQLVESGGGLVQAGGSLRLSCAASGGNFGRYAMGWYRQAPGKERELVADINWSGGANTNYADSVKGRFTISRDNAKNTVYLQMNSLKPEDTAVYYCAAPSYFTHSGRFDYWGQGTQVTVSS | low polyreactivity |
| QVQLVESGGGLVQAGGSLRLSCAASGGPFFYYAMGWYRAAPGKAREWVAAITWSATDTYYADSVKGRFTISRDNAKNTVYIQMNSLKPEDTAVYYCNAAPIGSEVDYGGQGTQVTVSS | low polyreactivity |
| QVQLVESGGGLVQAGGSLRLSCAASGGSFNNYAMGWYRQAPGKERELVAAITYSGVRTNYADSVKGRFTISRDNAKNTVYLQMNSLKPEDTAVYYCAADGLSNVRQMDYWGQGTQVTVSS | low polyreactivity |
| QVQLVESGGGLVQAGGSLRLSCAASGGTFALYAMGWYRQAPGKERELVASISFNGGSTYYADSVKGRFTISRDTAKNTVYLQMNSLKPEDTAVYYCNTGYQWGVYESQTAEEDYWGQGTQVTVSS | low polyreactivity |
| QVQLVESGGGLVQAGGSLRLSCAASGGTFAWYAMGWYRQAPGKERELVAAITSDGNTDYADSVKGRFTISRDNAKNTVYLQMNSLKPEDTAVYYCAADVQWRSAYDYTMGYWGQGTQVTVSS | low polyreactivity |
| QVQLVESGGGLVQAGGSLRLSCAASGGTFDSNAMGWYRQAPGKERELVAAISSGGSTYYADSVKGRFTISRDNAKNTVYLQMNSLKPEDTAVYYCAADSSGGASAPMDYWGQGTQVTVSS | low polyreactivity |
